Reference: US20180319855A1, “GENETICALLY MUTATED AEQUORIN-BASED BIOSENSORS WITH EXTRA SENSITIVITY TO CALCIUM AND IMPROVED BIOLUMINESCENCE INTENSITY” (CENTRE NATIONAL DE LA RECHERCHE SCIENTIFIQUE (CNRS), priority 2015, published 2018)
Several values for one entry are separate records, joined by “and”; a condition that tells them apart may be missing. Identical values can stand only once. Like-named read-outs stand apart in the source and are kept apart here.

Key:
endogenous P2Y2 receptor = experiment: Assay of activation of endogenous P2Y2 receptor by ATP in CHO cells stably expressing photoproteins; format: cell-based; conditions: CHO cells stably expressing the sensor; for EC50: ATP dose-response, read-out: EC50 (half-maximal effective concentration of ATP for P2Y2 activation)
Procedure: Stably prepared CHO cells were loaded with 5 μM coelenterazine in 130 mM NaCl, 5 mM KCl, 1 mM MgCl2, 2 mM CaCl2, 5 mM NaHCO3, 20 mM N-(2-hydroxyethyl) piperazine-N′-ethanesulfonic acid (HEPES), pH 7.4 for 4 h at ambient temperature.
To produce stable CHO cell lines, the cells transfected with GA and Redquorin variant plasmids were seeded on six-well plates and grown in the same medium with addition of Geneticin sulfate (G418) (Gibco, UK) at 1 mg/ml under the same conditions with replacement of the medium by fresh medium every 2 days. After 7-10 days of selection, CHO cells were transferred into a medium without antibiotic. To select clones with the highest bioluminescence activity, one run of limiting dilution was performed. CHO cells after G418 selection were seeded on 96-well plates (approximately 0.5 cells per well) and grown in DMEM/F12 medium supplemented with 10% fetal calf serum at 37° C., 5% CO2 for up to 80-90% confluence. Before the bioluminescence measurements, the plates with monoclones of CHO cells expressing the corresponding photoprotein were duplicated and grown for up to 90-100% confluence. Then, the medium was removed and cells were loaded with coelenterazine, and bioluminescence in each well was measured according to the procedure described earlier. As a result, the CHO cell clones with the highest bioluminescence activity were selected.
Assay of Activation of Endogenous P2Y2 Receptor in CHO Cells
The CHO cell lines stably expressing each photoprotein were used in assay of activation of endogenous P2Y2 receptor by ATP. The day before the measurements, the corresponding cells were seeded on 96-well plates with DMEM/F12 medium supplemented with 10% fetal calf serum and were grown at 37° C. with 5% CO2 for up to 90-100% confluence. Then, the medium was replaced by 100 μl of coelenterazine solution per well (5 μM coelenterazine in 130 mM NaCl, 5 mM KCl, 1 mM MgCl2, 2 mM CaCl2, 5 mM NaHCO3, 20 mM HEPES, pH7.4) and the cells were incubated at 23° C. for 4 h. Emission from photoproteins in the cells was measured using a Mithras LB 940 plate luminometer. The ATP was injected at a given concentration to trigger an intracellular Ca^2+ response in the cells and the measurement started immediately. The bioluminescence was integrated over a time interval of 0.05 s for 30 s.

[1] = Ca2+ sensitivity curves of reconstituted photoproteins (L/Lmax vs free Ca2+); format: biochemical; conditions: for EC50: redquorin series, CitA, GA, read-out: Calcium sensitivity, EC50; for Relative intensity at pCa 6.5 / Relative intensity at pCa 7.2: relative to Redq
Outline: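 Purified apoaequorin/redquorin mutants reconstituted overnight at 4 °C with 5 μM CLZ-f or native CLZ, then moved to zero-Ca2+ MOPS/KCl/EGTA buffer, pH 7.2. Luminescence in EGTA-buffered free-Ca2+ solutions, then saturating CaCl2 to obtain Lmax; EC50 from variable-slope sigmoidal fit of L/Lmax.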

Row | EC50 (endogenous P2Y2 receptor) [nM] | EC50 ([1]; CLZ-f) [nM] | EC50 ([1]; CLZ-native) [nM] | Molecule | [ATP] DL (detection limit) (endogenous P2Y2 receptor) | Relative intensity at pCa 6.5 ([1]; CLZ-f) | Relative intensity at pCa 7.2 ([1]; CLZ-f) | Relative intensity at pCa 6.5 ([1]; CLZ-f, listed as Redq/QT) | Relative intensity at pCa 6.5 ([1]; CLZ-native) | Relative intensity at pCa 7.2 ([1]; CLZ-native) | Relative intensity at pCa 6.5 ([1]; CLZ-native, listed as Redq/QT)
1 | 1700 | 296 ± 13 | 478 ± 39 | Redq/Q159T: aporedquorin (tdTomato-aequorin fusion) mutant Q159T (SEQ ID NO:22) (protein, mutant aequorin) MVSKGEEVIKEFMRFKVRMEGSMNGHEFEIEGEGEGRPYEGTQTAKLKVTKGGPLPFAWDILSPQFMYGSKAYVKHPADIPDYKKLSFPEGFKWERVMNFEDGGLVTVTQDSSLQDGTLIYKVKMRGTNFPPDGPVMQKKTMGWEASTERLYPRDGVLKGEIHQALKLKDGGHYLVEFKTIYMAKKPVQLPGYYYVDTKLDITSHNEDYTIVEQYERSEGRHHLFLGHGTGSTGSGSSGTASSEDNNMAVIKEFMRFKVRMEGSMNGHEFEIEGEGEGRPYEGTQTAKLKVTKGGPLPFAWDILSPQFMYGSKAYVKHPADIPDYKKLSFPEGFKWERVMNFEDGGLVTVTQDSSLQDGTLIYKVKMRGTNFPPDGPVMQKKTMGWEASTERLYPRDGVLKGEIHQALKLKDGGHYLVEFKTIYMAKKPVQLPGYYYVDTKLDITSHNEDYTIVEQYERSEGRHHLFLSGFDNPRWIGRHKHMFNFLDVNHNGKISLDEMVYKASDIVINNLGATPEQAKRHKDAVEAFFGGAGMKYGVETDWPAYIEGWKKLATDELEKYAKNEPTLIRIWGDALFDIVDKDQNGAITLDEWKAYTKAAGIIQSSEDCEETFRVCDIDESGTLDVDEMTRQHLGFWYTMDPACEKLYGGAVP | 398 nM and 398 ± 17 nM | 11.0 | 2.8 | 11 | 13.0 | 7.1 | 13
2 | 2300 ± 200 | 290 ± 18 | 680 ± 33 | Redq/Q159D: aporedquorin (tdTomato-aequorin fusion) mutant Q159D (SEQ ID NO:21) (protein, mutant aequorin) MVSKGEEVIKEFMRFKVRMEGSMNGHEFEIEGEGEGRPYEGTQTAKLKVTKGGPLPFAWDILSPQFMYGSKAYVKHPADIPDYKKLSFPEGFKWERVMNFEDGGLVTVTQDSSLQDGTLIYKVKMRGTNFPPDGPVMQKKTMGWEASTERLYPRDGVLKGEIHQALKLKDGGHYLVEFKTIYMAKKPVQLPGYYYVDTKLDITSHNEDYTIVEQYERSEGRHHLFLGHGTGSTGSGSSGTASSEDNNMAVIKEFMRFKVRMEGSMNGHEFEIEGEGEGRPYEGTQTAKLKVTKGGPLPFAWDILSPQFMYGSKAYVKHPADIPDYKKLSFPEGFKWERVMNFEDGGLVTVTQDSSLQDGTLIYKVKMRGTNFPPDGPVMQKKTMGWEASTERLYPRDGVLKGEIHQALKLKDGGHYLVEFKTIYMAKKPVQLPGYYYVDTKLDITSHNEDYTIVEQYERSEGRHHLFLSGFDNPRWIGRHKHMFNFLDVNHNGKISLDEMVYKASDIVINNLGATPEQAKRHKDAVEAFFGGAGMKYGVETDWPAYIEGWKKLATDELEKYAKNEPTLIRIWGDALFDIVDKDQNGAITLDEWKAYTKAAGIIQSSEDCEETFRVCDIDESGDLDVDEMTRQHLGFWYTMDPACEKLYGGAVP | 417 ± 16 nM | 23.9 | 14.9 |  | 9.1 | 13.2 | 
